{
  "source": "patent US11434289B2",
  "about": "“Anti-GPR20 antibody and anti-GPR20 antibody-drug conjugate” (DAIICHI SANKYO COMPANY, LIMITED, priority 2017, dated 2022)",
  "molecules": {"B1": {"name": "04-079: rat anti-human GPR20 antibody; heavy chain SEQ ID NO: 12, light chain SEQ ID NO: 17 (antibody, listed as Rattus norvegicus)", "heavy": "MEWNWVFLFLLSVTAVVHSQVQLQQSGAELAKPGSSVKISCKASGYTFTSYYITWIKQTTGQGLKYIGYINPGSGHTNYNEKFKGKATLTVDKSSSTAFMQLSSLTPDDSAVYYCARGAGGFLRIISKFDYWGQGVMVTVSSAQTTAPSVYPLAPGCGDTTSSTVTLGCLVKGYFPEPVTVTWNSGALSSDVHTFPAVLQSGLYTLTSSVTSSTWPSQTVTCNVAHPASSTKVDKKVERRNGGIGHKCPTCPTCHKCPVPELLGGPSVFIFPPKPKDILLISQNAKVTCVVVDVSEEEPDVQFSWFVNNVEVHTAQTQPREEQYNSTFRVVSALPIQHQDWMSGKEFKCKVNNKALPSPIEKTISKPKGLVRKPQVYVMGPPTEQLTEQTVSLTCLTSGFLPNDIGVEWTSNGHIEKNYKNTEPVMDSDGSFFMYSKLNVERSRWDSRAPFVCSVVHEGLHNHHVEKSISRPPGK", "light": "METDRLLLWVLLLWVPGSTGDTVLTQSPALAVSLGQRVTISCRASKSVSTYMHWYQQRSGQQPKLLIYSASNLESGVPSRFSGSGSGTDFTLTIDPVKADDITNYYCQQSNELPYTFGAGTKLELKRADAAPTVSIFPPSTEQLATGGASVVCLMNNFYPRDISVKWKIDGTERRDGVLDSVTDQDSKDSTYSMSSTLSLTKADYESHNLYTCEVVHKTSSSPVVKSFNRNEC", "modifications": "SIGNAL (1)..(19); SIGNAL (1)..(20)"}, "B2": {"name": "04-046: rat anti-human GPR20 antibody; heavy chain SEQ ID NO: 2, light chain SEQ ID NO: 7 (antibody, listed as Rattus norvegicus)", "heavy": "B1 heavy with V16E, T54S, Y69F, V112I, S127T", "light": "B1 light with M52I, K98E, A99P, T103A, S110I", "modifications": "SIGNAL (1)..(19); SIGNAL (1)..(20)"}, "B3": {"name": "04-126: rat anti-human GPR20 antibody; heavy chain SEQ ID NO: 22, light chain SEQ ID NO: 27 (antibody, listed as Rattus norvegicus)", "heavy": "B1 heavy with V16E, Q24R, T54I, I56M, T60A, K65Q, I67V, A119T", "light": "B1 light with N72T, K98E, T103A", "modifications": "SIGNAL (1)..(19); SIGNAL (1)..(20)"}},
  "note": "Residue numbers refer to the chain shown, from its start.",
  "data": [
    {"target": "T1, mouse GPR20 (Mus musculus, UniProt Q8BYC4)", "T1 construct": "using the full-length mouse GPR20 expression vector pcDNA-mGPR20 constructed in 4)-1 as a template; expressed in transfected cells; host or cells: 293α cells, transient", "T1 sequence (Q8BYC4 whole entry)": "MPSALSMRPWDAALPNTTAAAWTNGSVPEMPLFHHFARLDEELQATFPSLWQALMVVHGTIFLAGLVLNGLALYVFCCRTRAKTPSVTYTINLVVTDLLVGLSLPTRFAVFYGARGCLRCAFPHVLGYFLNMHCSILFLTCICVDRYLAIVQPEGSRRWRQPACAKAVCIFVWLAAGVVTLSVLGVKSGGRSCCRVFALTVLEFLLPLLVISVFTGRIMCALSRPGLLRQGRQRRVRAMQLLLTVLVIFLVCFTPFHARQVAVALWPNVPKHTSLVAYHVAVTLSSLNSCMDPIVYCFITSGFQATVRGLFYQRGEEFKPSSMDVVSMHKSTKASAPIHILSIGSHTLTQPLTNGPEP", "assay": "Cell-ELISA binding to 293α cells expressing mouse GPR20", "settings": "transiently transfected 293α cells, FIG. 22", "method": "(§1) The culture supernatant of the 293a cells transfected with the expression vector prepared in Example 1)-4-1 was removed, and the culture supernatant from each hybridoma was then added to the 293a cells transfected either with pcDNA3.1-hGPR20 or pcDNA3.1. The cells were left standing at 4° C. for 1 hour. The cells in the wells were washed once with PBS (+) supplemented with 5% FBS, and thereafter, Anti-Rat IgG-Peroxidase antibody produced in rabbit (Sigma-Aldrich Co. LLC) that had been 500-fold diluted with PBS (+) supplemented with 5% FBS was added to the wells. The cells were left standing at 4° C. for 1 hour. The cells in the wells were washed three times with PBS (+) supplemented with 5% FBS, and thereafter, OPD chromogenic solution (which had been prepared by dissolving o-phenylenediamine dihydrochloride (Wako Pure Chemical Industries, Ltd.) and H2O2 in an OPD solution (0.05 M trisodium citrate, 0.1 M disodium hydrogen phosphate 12-water; pH 4.5), so that the substances became 0.4 mg/ml and 0.6% (v/v), respectively) was added in an amount of 100 μL/well to the wells. A coloring reaction was carried out with occasional stirring. Thereafter, 1 M HCl was added to the plate (100 μL/well) to terminate the coloring reaction, followed by measurement of the absorbance at 490 nm using a plate reader (ENVISION: PerkinElmer, Inc.).\nAccording to a method known to a person skilled in the art, cDNA was artificially synthesized based on Ref Seq sequence NM_173365 of mouse GPR20, and then cloned into pcDNA-DEST40 expression vector (Invitrogen Corp.) to construct mouse GPR20 expression vector pcDNA-mGPR20.\nThe binding activity of the anti-GPR20 antibodies 04-046, 04-079, 04-126, 04-021, 13-024, and 13-048 against 293a cells into which different GPR20 expression vectors were transiently introduced was examined by the same method as the Cell-ELISA method shown in Example 1. […]", "values": [
      {"molecule": "B1", "binding activity against mouse GPR20": "did not bind"},
      {"molecule": "B2", "binding activity against mouse GPR20": "did not bind"},
      {"molecule": "B3", "binding activity against mouse GPR20": "did not bind"}
    ]},
    {"target": "T2, human GPR20 (Homo sapiens, UniProt Q99678)", "T2 construct": "expressed in transfected cells; host or cells: 293T cells, transient, Lipofectamine 2000", "T2 sequence (Q99678 whole entry)": "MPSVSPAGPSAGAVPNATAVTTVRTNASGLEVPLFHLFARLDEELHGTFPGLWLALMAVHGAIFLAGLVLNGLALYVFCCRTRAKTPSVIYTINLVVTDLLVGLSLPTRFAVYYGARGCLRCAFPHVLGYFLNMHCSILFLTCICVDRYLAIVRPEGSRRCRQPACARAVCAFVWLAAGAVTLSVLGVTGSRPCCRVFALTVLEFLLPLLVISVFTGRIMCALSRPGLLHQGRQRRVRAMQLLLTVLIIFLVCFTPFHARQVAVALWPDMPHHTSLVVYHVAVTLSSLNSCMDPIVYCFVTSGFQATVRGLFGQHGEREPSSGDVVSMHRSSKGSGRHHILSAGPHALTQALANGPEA", "assay": "Analysis of GPR20-binding site of anti-GPR20 antibodies by Cell-ELISA", "settings": "EC1 = positions 1 to 48, EC2 = positions 108 to 125 of human GPR20", "method": "as §1\nBinding sites of anti-human GPR20 antibodies were classified by measuring their binding activity against mouse GPR20, N-terminally FLAG-tagged human GPR20, and human/mouse chimeric GPR20 in which each of four extracellular regions (EC1, EC2, EC3, and EC4) of human GPR20 was substituted with a mouse GPR20-derived sequence, respectively, by Cell-ELISA. FIG. 21 is a diagram of the comparison between the amino acid sequences of human GPR20 (NP_005284) and mouse GPR20 (NP_775541). The four extracellular regions EC1 to EC4 are represented by positions in the amino acid sequence of human GPR20. EC1 corresponds to positions 1 to 48, EC2 corresponds to positions 108 to 125, EC3 corresponds to positions 190 to 196, and EC4 corresponds to positions 260 to 275. […]", "values": [
      {"molecule": "B1", "GPR20 extracellular region recognized": "EC1, EC2"},
      {"molecule": "B2", "GPR20 extracellular region recognized": "EC1, EC2"},
      {"molecule": "B3", "GPR20 extracellular region recognized": "EC1, EC2"}
    ]},
    {"target": "T2, human GPR20", "assay": "Human GPR20-binding antibody screening by flow cytometry (hybridoma culture supernatants, transfected 293T cells)", "settings": "hybridoma culture supernatant; 293T cells transfected with pcDNA3.1-hGPR20 vs control pcDNA3.1; FIG. 18", "method": "293T cells were seeded in a 225-cm^2 flask (Sumitomo Bakelite Co., Ltd.) at 5×10^4 cells/cm^2, and the cells were then cultured overnight under conditions of 37° C. and 5% CO2 in DMEM medium supplemented with 10% FBS. pcDNA3.1-hGPR20 or pcDNA3.1 as a negative control was introduced into the 293T cells using Lipofectamine 2000, and the cells were further cultured overnight under conditions of 37° C. and 5% CO2. The 293T cells transfected with each expression vector were treated with TrypLE Express (Life Technologies Corp.), and the cells were washed with DMEM supplemented with 10% FBS, and then suspended in PBS supplemented with 5% FBS. The obtained cell suspension was used in flow cytometry analysis.\nThe binding specificity to human GPR20 of an antibody produced from hybridomas that had been determined to be positive by Cell-ELISA in Example 1)-4-2 was further confirmed by flow cytometry. The suspension of the transiently expressing 293T cells prepared in Example 1)-5-1 was centrifuged, and a supernatant was then removed. Thereafter, the cells were suspended by the addition of the culture supernatant from each hybridoma. The cells were left standing at 4° C. for 1 hour. The cells were washed twice with PBS supplemented with 5% FBS, and thereafter, the cells were suspended by the addition of Anti-Rat IgG FITC conjugate (Sigma-Aldrich Co. LLC) that had been 500-fold diluted with PBS supplemented with 5% FBS. […] The data was analyzed using Flowjo (Tree Star, Inc.). After dead cells were removed from analysis by gating out 7-aminoactinomycin D-positive cells, a histogram of the FITC fluorescence intensity of live cells was generated. Hybridomas producing human GPR20-binding antibodies (178 clones) were selected based on results where the histogram for the antibody shifted to the strong fluorescence intensity side in the 293T cells transfected with pcDNA3.1-hGPR20 compared with the 293T cells transfected with the control pcDNA3.1. […] The abscissa of FIG. 18 depicts clone No., and the ordinate thereof depicts the amount of the antibody bound based on MFI (mean fluorescence intensity).", "values": [
      {"molecule": "B1", "binding to human GPR20 (amount of the antibody bound based on MFI)": "specifically binding to human GPR20"},
      {"molecule": "B2", "binding to human GPR20 (amount of the antibody bound based on MFI)": "specifically binding to human GPR20"},
      {"molecule": "B3", "binding to human GPR20 (amount of the antibody bound based on MFI)": "specifically binding to human GPR20"}
    ]}
  ]
}
